Biological target: rat cardiac troponin I (cTnI), Ser22/23 bisphosphorylated (rat, UniProt P23693 1-211, phosphoserine at 22 and 23)
Assay: SEC-MALS

stoichiometry N: 1
B1: rat cardiac troponin T (cTnT) (natural protein)
chain: not shown

— article PMC9826837 (The Journal of Biological Chemistry, 2022)
